Results from publication PMC6145892, “Roquin targets mRNAs in a 3′-UTR-specific manner by different modes of regulation”.

Assays:
Roquin-1 ROQ domain [1] = target: T1, Roquin-1 ROQ domain (UniProt Q4VGL6 171-326); test: ITC; n=0.81; ITC at room temperature, RNA titrated into 10-40 uM protein; buffer 20 mM Tris pH 7.0, 150 mM NaCl, 25 uM ZnCl2, 2 mM TCEP, 0.02% azide (stated for Znf); NMR HSQC 50 uM protein, RT, 10% D2O; settings: protein: recombinant; tags: His6-thioredoxin, TEV-removable; single-stranded, no imino signals
T1 sequence: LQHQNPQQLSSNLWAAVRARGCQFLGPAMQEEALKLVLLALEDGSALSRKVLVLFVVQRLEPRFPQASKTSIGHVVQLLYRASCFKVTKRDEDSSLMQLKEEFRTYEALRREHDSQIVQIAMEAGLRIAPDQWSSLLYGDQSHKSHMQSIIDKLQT

[2] = target: T2, Roquin-1 zinc finger (Znf, CCCH) (UniProt Q4VGL6 411-454); test: ITC; Zn2+; n=0.5; ITC at room temperature, RNA titrated into 10-40 uM protein; buffer 20 mM Tris pH 7.0, 150 mM NaCl, 25 uM ZnCl2, 2 mM TCEP, 0.02% azide (stated for Znf); NMR HSQC 50 uM protein, RT, 10% D2O; settings: protein: recombinant; tags: His6-GST removed by TEV; chain copies: 2; single-stranded, no imino signals
T2 chain: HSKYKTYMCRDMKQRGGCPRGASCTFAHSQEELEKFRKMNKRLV

Roquin-1 ROQ domain [3] = target: T1, Roquin-1 ROQ domain; test: ITC; complete loss of binding; ITC at room temperature, RNA titrated into 10-40 uM protein; buffer 20 mM Tris pH 7.0, 150 mM NaCl, 25 uM ZnCl2, 2 mM TCEP, 0.02% azide (stated for Znf); NMR HSQC 50 uM protein, RT, 10% D2O; settings: protein: recombinant; tags: His6-thioredoxin, TEV-removable; single-stranded
[4] = target: T2, Roquin-1 zinc finger (Znf, CCCH); test: ITC; Zn2+; n=0.48; ITC at room temperature, RNA titrated into 10-40 uM protein; buffer 20 mM Tris pH 7.0, 150 mM NaCl, 25 uM ZnCl2, 2 mM TCEP, 0.02% azide (stated for Znf); NMR HSQC 50 uM protein, RT, 10% D2O; settings: protein: recombinant; tags: His6-GST removed by TEV; chain copies: 2; single-stranded
[5] = target: T2, Roquin-1 zinc finger (Znf, CCCH); test: ITC; Zn2+; ITC at room temperature, RNA titrated into 10-40 uM protein; buffer 20 mM Tris pH 7.0, 150 mM NaCl, 25 uM ZnCl2, 2 mM TCEP, 0.02% azide (stated for Znf); NMR HSQC 50 uM protein, RT, 10% D2O; settings: protein: recombinant; tags: His6-GST removed by TEV; chain copies: 2; single-stranded
[6] = target: T2, Roquin-1 zinc finger (Znf, CCCH); test: ITC; Zn2+; n=1.0; ITC at room temperature, RNA titrated into 10-40 uM protein; buffer 20 mM Tris pH 7.0, 150 mM NaCl, 25 uM ZnCl2, 2 mM TCEP, 0.02% azide (stated for Znf); NMR HSQC 50 uM protein, RT, 10% D2O; settings: protein: recombinant; tags: His6-GST removed by TEV; chain copies: 2; single-stranded
[7] = target: T2, Roquin-1 zinc finger (Znf, CCCH); test: ITC; Zn2+; n=0.45; ITC at room temperature, RNA titrated into 10-40 uM protein; buffer 20 mM Tris pH 7.0, 150 mM NaCl, 25 uM ZnCl2, 2 mM TCEP, 0.02% azide (stated for Znf); NMR HSQC 50 uM protein, RT, 10% D2O; settings: protein: recombinant; tags: His6-GST removed by TEV; chain copies: 2; single-stranded

Binder: UUUUAACAUUAUUUU (ssRNA) [LBE (Nfkbiz 3'-UTR 15-mer)]
- Kd (Roquin-1 ROQ domain [1]): 3.6 ± 0.4 µM
- Kd [2]: 26.3 ± 3.4 µM

Binder: UUUUAAGCGUAUUUU (ssRNA) [LBE mutant (GCG)]
- binding result (Roquin-1 ROQ domain [3]): no binding
- Kd [4]: 21.4 ± 3.6 µM

Binder: CACACACACA (ssRNA) [(CA)5 10-mer]
- binding result [5]: no binding

Binder: UUUUAACAU (ssRNA) [LBE 5'-half 9-mer]
- Kd [6]: 35.6 ± 6.8 µM

Binder: GUGUGUGUGU (ssRNA) [(GU)5 10-mer]
- Kd [7]: 52.5 ± 7.2 µM
